The values that follow come from article PMC6929039.

The target in the series is Concanavalin A (Con A) (UniProt P02866 164-281+30-148, internal_change). As to the kind of experiment: particle flow cytometry; 10 nM Con A; binding buffer, salt, pH and temperature not given in the material (hemagglutination: 30 min preincubation at RT). In general terms: Flow cytometry measures light scatter and fluorescence of single cells or particles in a stream.

B1: ConA-3-1n (ssDNA)
DNA: GATCCCAGTCCGAAGTAATCGTTGCATCTGCACGACTGGTGAGCTTGAGTGGCAGAAGAACTTGTGCAAACGGCTATAGG
modifications: none
Take B1: the binding result was “no binding”.
